In the Human Domainome abundance scans (Beltran et al. 2025):
± gives the uncertainty stated by the source.

B1: Receptor-interacting serine/threonine-protein kinase 2, residues 438 to 518; numbered along this chain, O43353 (parent)
chain: QWIQSKREDIVNQMTEACLNQSLDALLSRDLIMKEDYELVSTKPTRTSKVRQLLDTTDIQGEEFAKVIVQKLKDNKQMGLQ

Variants of: B1
Test: abundance fitness (aPCA) (normalised: wild type 0, dead -1); higher = more abundant; growth selection in yeast, the domain comes from the species named
Details: Homo sapiens

Row | Variant | abundance fitness
1 | L72F | -0.072 ± 0.14
2 | L72Q | -0.451 ± 0.15
3 | L72C | -0.713 ± 0.34
4 | L72E | -0.283 ± 0.12
5 | L72N | -0.043 ± 0.33
6 | L72H | -0.741 ± 0.2
7 | E63T | -0.362 ± 0.083
8 | E63F | -0.972 ± 0.18
9 | E63G | -0.475 ± 0.08
10 | E63D | -0.3 ± 0.22
11 | Q70L | -0.687 ± 0.11
12 | Q70E | 0.08 ± 0.15
13 | Q70M | -0.436 ± 0.15
14 | Q70W | -0.645 ± 0.16
15 | Q70S | -0.174 ± 0.066
16 | L39R | 0.015 ± 0.047
17 | L39W | -0.815 ± 0.13
18 | P44L | -0.263 ± 0.067
19 | P44R | -0.265 ± 0.052
20 | P44T | -0.283 ± 0.1
21 | P44E | -0.141 ± 0.1
22 | P44S | -0.304 ± 0.075
23 | P44C | -0.491 ± 0.15
24 | V67F | -0.945 ± 0.24

Row | Variant | abundance fitness
25 | V67W | -0.95 ± 0.15
26 | V67N | -0.651 ± 0.42
27 | K43D | -1.06 ± 0.37
28 | K43V | -0.348 ± 0.11
29 | K43I | -0.535 ± 0.28
30 | G79R | -0.282 ± 0.14
31 | Q21V | -0.382 ± 0.085
32 | Q21H | -0.562 ± 0.13
33 | Q21L | -0.319 ± 0.073
34 | Q21N | -0.357 ± 0.2
35 | Q21S | -0.141 ± 0.062
36 | Q21A | 0.089 ± 0.12
37 | D74R | -0.49 ± 0.051
38 | D74K | -0.644 ± 0.2
39 | D74Q | -0.248 ± 0.11
40 | D74E | -0.085 ± 0.15
41 | D74P | -0.512 ± 0.053
42 | D74T | -0.285 ± 0.09
43 | V40W | -1.04 ± 0.23
44 | V40A | -0.528 ± 0.085
45 | V40C | -0.302 ± 0.11
46 | V40T | -0.997 ± 0.2
47 | V40F | -0.436 ± 0.18
48 | K73R | 0.011 ± 0.051

Row | Variant | abundance fitness
49 | K73N | -0.191 ± 0.22
50 | K73Q | -0.003 ± 0.076
51 | K73A | -0.119 ± 0.062
52 | K73E | 0.072 ± 0.099
53 | G61D | -0.022 ± 0.14
54 | G61E | -0.125 ± 0.15
55 | G61M | -0.947 ± 0.45
56 | G61I | -0.935 ± 0.32
57 | G61T | -0.085 ± 0.13
58 | G61P | -0.596 ± 0.086
59 | T42K | -0.206 ± 0.42
60 | T42Y | -0.406 ± 0.15
61 | T42S | 0.022 ± 0.061
62 | N75G | -0.241 ± 0.055
63 | N75K | -0.535 ± 0.14
64 | N75Y | -0.285 ± 0.14
65 | N75P | -0.446 ± 0.07
66 | N75V | -0.383 ± 0.06
67 | N20F | 0.023 ± 0.37
68 | N20T | -0.29 ± 0.17
69 | N20Q | -0.091 ± 0.42
70 | N20C | -0.564 ± 0.16
71 | N20W | 0.075 ± 0.11
72 | N20E | -0.571 ± 0.36

Row | Variant | abundance fitness
73 | N20L | -0.102 ± 0.1
74 | A25Q | -0.43 ± 0.096
75 | A25P | -0.737 ± 0.082
76 | A25T | -0.174 ± 0.075
77 | A25W | -0.969 ± 0.17
78 | A25R | -0.592 ± 0.063
79 | A25G | -0.451 ± 0.067
80 | A25D | -0.088 ± 0.1
81 | F64A | 0.131 ± 0.058
82 | F64P | -0.248 ± 0.065
83 | F64G | -0.257 ± 0.054
84 | F64E | -0.123 ± 0.11
85 | K71H | 0.078 ± 0.11
86 | K71E | -0.21 ± 0.11
87 | K71N | -0.157 ± 0.25
88 | K71Q | -0.086 ± 0.1
89 | K71S | 0.028 ± 0.054
90 | K71I | -0.122 ± 0.11
91 | R51H | -0.518 ± 0.11
92 | R51V | -0.273 ± 0.072
93 | R51N | -0.207 ± 0.11
94 | I3F | -0.771 ± 0.47
95 | I3G | -0.87 ± 0.25
96 | K66D | -0.401 ± 0.2

Row | Variant | abundance fitness
97 | K66E | 0.096 ± 0.08
98 | K66A | -0.172 ± 0.069
99 | K66Y | -0.874 ± 0.42
100 | Q60E | -0.021 ± 0.17
101 | Q60P | -0.283 ± 0.06
102 | Q60A | -0.08 ± 0.053
103 | Q60I | -0.302 ± 0.15
104 | Q60K | -0.361 ± 0.14
105 | W2R | -0.41 ± 0.088
106 | W2N | -0.196 ± 0.2
107 | W2H | -0.684 ± 0.24
108 | W2K | -0.435 ± 0.14
109 | R29V | -0.66 ± 0.14
110 | R29H | -0.345 ± 0.17
111 | R29C | -0.403 ± 0.22
112 | R29K | 0.002 ± 0.17
113 | R29I | -0.88 ± 0.22
114 | K76W | -0.36 ± 0.11
115 | K76C | 0.003 ± 0.14
116 | K76V | -0.301 ± 0.092
117 | S22N | -0.71 ± 0.46
118 | S22C | -0.017 ± 0.13
119 | S22Q | -0.796 ± 0.15
120 | S22I | 0.565 ± 0.49

Row | Variant | abundance fitness
121 | E35D | -0.142 ± 0.14
122 | T15L | -0.75 ± 0.12
123 | T15R | -0.937 ± 0.11
124 | T15S | 0.158 ± 0.042
125 | T15W | -1.05 ± 0.21
126 | L27T | -0.355 ± 0.12
127 | L27Q | -0.293 ± 0.22
128 | L27N | -0.395 ± 0.17
129 | L27H | -0.284 ± 0.18
130 | L27Y | -0.069 ± 0.13
131 | L27P | -0.328 ± 0.07
132 | L27F | -0.353 ± 0.19
133 | I32M | -0.183 ± 0.11
134 | I32E | -0.731 ± 0.2
135 | I32K | -0.94 ± 0.42
136 | I32V | -0.373 ± 0.085
137 | I32S | -0.593 ± 0.078
138 | S5V | -0.384 ± 0.16
139 | S5K | -0.171 ± 0.27
140 | S5H | -0.824 ± 0.36
141 | S5F | -0.636 ± 0.43
142 | S5Q | -0.088 ± 0.23
143 | L19P | -0.3 ± 0.16
144 | L19A | -0.447 ± 0.1

Row | Variant | abundance fitness
145 | T57G | -0.004 ± 0.041
146 | T57W | -0.738 ± 0.14
147 | T57D | -0.28 ± 0.078
148 | S41W | -0.466 ± 0.1
149 | S41E | -0.259 ± 0.11
150 | I59S | -0.29 ± 0.27
151 | I59C | -0.029 ± 0.26
152 | I59L | 0.231 ± 0.23
153 | L54T | -0.925 ± 0.21
154 | L54C | -0.45 ± 0.06
155 | L54A | -0.345 ± 0.097
156 | L54Y | -0.814 ± 0.22
157 | L54E | -0.3 ± 0.22
158 | S48F | -0.527 ± 0.22
159 | S48P | -0.651 ± 0.089
160 | S48G | -0.11 ± 0.055
161 | S48C | -0.293 ± 0.1
162 | S48T | -0.224 ± 0.1
163 | S48Q | 0.123 ± 0.099
164 | Y37D | -0.471 ± 0.17
165 | Y37G | -0.519 ± 0.06
166 | Y37L | -0.186 ± 0.068
167 | Y37V | -0.413 ± 0.091
